Measurements: FireProtDB (doi:10.1016/0167-4838(95)00124-d)

Conditions: Rattus norvegicus, pH 7.2, Absorbance, MOPS 0.1 M, reversible: Yes; for ddG of mutation (higher = less stable) / unfolding free energy: 25 °C, Urea; for Tm / change of melting temperature, mutant - wild type (higher = more stable): Thermal

Sequence of Cytochrome c, somatic Y68F, P62898 (P62898 whole entry Y68F): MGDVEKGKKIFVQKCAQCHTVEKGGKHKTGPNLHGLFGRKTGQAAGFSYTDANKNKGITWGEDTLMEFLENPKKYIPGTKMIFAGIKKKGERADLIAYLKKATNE
Sequence of Cytochrome c, somatic P31A|Y68F, P62898 P31A Y68F (P62898 whole entry P31A/Y68F): as the sequence (P62898 whole entry Y68F) above, with P31A counted along it
Sequence of Cytochrome c, somatic H34F, P62898 (P62898 whole entry H34F): as the sequence (P62898 whole entry Y68F) above, with H34F, F68Y counted along it
Sequence of Cytochrome c, somatic H27V, P62898 (P62898 whole entry H27V): as the sequence (P62898 whole entry Y68F) above, with H27V, F68Y counted along it
Sequence of Cytochrome c, somatic H27V|H34F, P62898 H27V H34F (P62898 whole entry H27V/H34F): as the sequence (P62898 whole entry Y68F) above, with H27V, H34F, F68Y counted along it
Sequence of Cytochrome c, somatic N53I, P62898 (P62898 whole entry N53I): as the sequence (P62898 whole entry Y68F) above, with N53I, F68Y counted along it
Sequence of Cytochrome c, somatic P31A, P62898 (P62898 whole entry P31A): as the sequence (P62898 whole entry Y68F) above, with P31A, F68Y counted along it
Sequence of Cytochrome c, somatic P31V, P62898 (P62898 whole entry P31V): as the sequence (P62898 whole entry Y68F) above, with P31V, F68Y counted along it
Sequence of Cytochrome c, somatic wild type, P62898 (P62898 whole entry): as the sequence (P62898 whole entry Y68F) above, with F68Y counted along it
Sequence of Cytochrome c, somatic H27V|N53I, P62898 H27V N53I (P62898 whole entry H27V/N53I): as the sequence (P62898 whole entry Y68F) above, with H27V, N53I, F68Y counted along it

Substance	ddG of mutation (higher = less stable) (structure 1I5T)	unfolding free energy (structure 1I5T)	Tm (structure 1I5T)	change of melting temperature, mutant - wild type (higher = more stable) (structure 1I5T)	unfolding free energy	Tm
Cytochrome c, somatic H27V, P62898	3.78 kcal/mol	5.72 kcal/mol	50 °C	-10 °C		
Cytochrome c, somatic H27V|H34F, P62898 H27V H34F	2.15 kcal/mol	7.35 kcal/mol	53 °C	-7 °C		
Cytochrome c, somatic H27V|N53I, P62898 H27V N53I	1.86 kcal/mol	7.64 kcal/mol				
Cytochrome c, somatic H34F, P62898	-0.67 kcal/mol	10.2 kcal/mol	69 °C			
Cytochrome c, somatic N53I, P62898		6.36 kcal/mol	80 °C	20 °C		
Cytochrome c, somatic P31A, P62898	5.74 kcal/mol	3.76 kcal/mol	51 °C	-9 °C		
Cytochrome c, somatic P31A|Y68F, P62898 P31A Y68F		6.74 kcal/mol	62 °C	2 °C		
Cytochrome c, somatic P31V, P62898			49 °C	-11 °C		
Cytochrome c, somatic Y68F, P62898		7.19 kcal/mol	90 °C	30 °C		
Cytochrome c, somatic wild type, P62898					9.5 kcal/mol	60 °C
